PMC6610143 (Nature Communications, 2019)
No end group written: not given here.

T1: biotin-labeled HA peptide (HA epitope peptide (influenza A virus …, also: biotin label, position not given here))
T1 chain: YPYDVPDYA

T2: mitoNEET (Mito) fused to mCherry and 1 × HA (synthetic HA epitope tag (influenza A …, UniProt P03437))
T2 chain: YPYDVPDYA

T3: mitoNEET (Mito) fused to mCherry and the spaghetti monster HA tag (synthetic HA epitope tag (influenza A …))
T3 construct: also called Mito-mCh-smHA; smHA-tagged Mito; source: U2OS, transfected, in living cells; not shown: mCherry, internal (between Mito and smHA), kept
T3 chain: YPYDVPDYA

B1: purified recombinant HA frankenbody fused to GFP (from pET23b-FB-GFP) (scFv, V domains shown)
VH: EVKLVESGGGLVKPGGSLKLSCAASGFTFSSYGMSWVRQTPEKRLEWVATISRGGSYTYYPDSVKGRFTISRDNAKNTLYLQMSSLRSEDTAIYYCARRETYDEKGFAYWGQGTTLTVSS
VL: DIVLTQSPASLTVSLGQRATISCKSSQSLLNSGNQKNYLTWYQQKPGQPPKLLIYWASTRESGIPARFSGSGSGTDFTLNIHPVEEEDAATYYCQNDNSHPLTFGAGTKLEI
notes: also called purified FB-GFP; purified frankenbody; source: E. coli BL21 (DE3) pLysS, purified (HisTrap HP, Superdex 200)
B2: HA frankenbody fused to mEGFP (χ15F11^HA) (scFv, V domains shown)
VH: EVKLVESGGGLVKPGGSLKLSCAASGFTFSSYGMSWVRQTPEKRLEWVATISRGGSYTYYPDSVKGRFTISRDNAKNTLYLQMSSLRSEDTAIYYCARRETYDEKGFAYWGQGTTLTVSS
VL: DIVLTQSPASLTVSLGQRATISCKSSQSLLNSGNQKNYLTWYQQKPGQPPKLLIYWASTRESGIPARFSGSGSGTDFTLNIHPVEEEDAATYYCQNDNSHPLTFGAGTKLEI
notes: also called FB-GFP; FB

What was measured:
[1] = target: T1, biotin-labeled HA peptide; assay: SPR; conditions: both partners purified
[2] = target: T2, mitoNEET (Mito) fused to mCherry and 1 …; conditions: partners not purified
[3] = target: T3, mitoNEET (Mito) fused to mCherry and …; assay: co-localisation of the fluorescent scFv with its tagged target in living cells; conditions: partners not purified

Row | Binder | Kd [1] [nM] | Mito/Bg (mitochondria to background fluorescent intensity ratio) [2] | Mito/Bg (mitochondria to background fluorescent intensity ratio) [3]
1 | B1 | 14.7 ± 7.4 |  | 
2 | B2 |  | 3.5 | 16.6
